Measured values reported in paper PMC8754645 (Nucleic Acids Research, 2021).

Columns and labels:
[1] = biological target: PsrA-His6 (His-tagged PsrA, LysR family transcriptional regulator of Serratia marcescens JNB5-1) (Serratia marcescens JNB5-1); assay: SEC
PsrA = assay: isothermal titration calorimetry, one-site model; assay type: binding, Serratia; conditions: 50 mM PBS pH 7.4, 25°C; 30 μM PsrA titrated with 0.3 mM ligand; effector, no DNA

Row | stoichiometry N [1] | Kd (PsrA) [µM] | Compound
1 | 4 |  | PsrA-His6 (His-tagged PsrA, LysR family transcriptional regulator of Serratia marcescens JNB5-1) (natural protein)
2 |  | 13.6 | O=C(O)[C@@H]1CCCN1 [L-proline]
